In the nanobody polyreactivity screen of Harvey et al. (2022):

Test: yeast display, Sf9 membrane polyspecificity reagent, FACS + sequencing; frameworks hold sequencing errors
In short: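 Genes from sorted yeast were amplified by colony PCR, read by MiSeq 2 × 250 sequencing and filtered on CDR length. These cells carried a synthetic nanobody library in Saccharomyces cerevisiae BJ5465 and were sorted by FACS into low and high (top ~1%) gates on anti-HA and streptavidin fluorescence. Polyreactivity is labelled according to the gate of origin.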

Row | Sequence | polyreactivity (PSR sort gate)
1 | QVQLVESGGGLVQAGGSLRLTCAASGYIFGIYAMGWYRQAPGKERELVAAITTSSGSTYADSVKGRFTISRDNAKNTVYLQMNSLKPEDTAVYYCAADGYLYSYPGHRRASYDYWGQGTQVTVSS | low polyreactivity
2 | QVQLVESWGGLVQAGGSLRLSCAASGRIFHRNTMGWYRQAPGKERELVAAIRSGSRTYYADSVKGRFTISRDNAKNTVYLQMNSLKPEDTAVYDCATTFGTPRYDYWGQGTQVTVSS | high polyreactivity
3 | QVQLVESGGGLVQAGGSLRLSCAASGFTFRWYAMGSYRQAPGKERELVAAISSSGGSTYYADSVKGRFTISRDNAKNTVYLQMNSLKPEDTAVYYCAAASLRPYQRAYGYEYWGQGTQVTVSS | high polyreactivity
4 | QVQLVESGGGLVPARGSLRLSCAASGFIFSDNAMGWYRQAPGKERELVAAITDDGDTTYYADSVKGSFTISRDNAKNTVYLQMISLKPEDTAVYYCATEIEDVEDSGPYYYVGYGYWGQGTQVTVSS | high polyreactivity
5 | QVQLVESGGGLVQAGGSLRLSCAASGSTFSRYAMGWYRQAPGKERELVAAITRSGGGTHYADSVKGRFTISRDNAKNTVYLQMNSLKPEDTAVYYCNVAGVLYPFVSYDYWGQGTQVTVSS | low polyreactivity
6 | QVQLVESGGGLVQAGGSLRLSCAASGSIFVRYAMGWYRQAPGKERQLVASIRSRGDSTYYADSVKGRFTISRDNAKNTVYLQMNSLKPEETAVYYCAARRYPPRMDYWGQGTQVTVSS | high polyreactivity
7 | QVQLVESGGGLVQAGGSLRLSCAASGIYINAMGWYRQAPGKERELVAAISRGGSTYYADSVKGRFTISRDNAKNTVYLQMNSLKPEDTAVYYCAKLIGRWRLYHTFVKGDYWGQGTQVTVSS | high polyreactivity
8 | QVQLVESGGGLVKAGGSLRLSFAAYGSNFPRYALGWYRQATGKERELVASITSDGGSTYYADSVKGRFTISRDNAKNTVYLQMNSLKPEDTAVYYCNKVPYRGYRRYGYWGQGTQVTVSS | high polyreactivity
9 | QVQLVESGGGLVQAGGSLRLSCAASGSIFGIYARGWYRQAPGKEREFVATITLGGGNTYYADSVKGRFTISRDYAKNTVYLQMNSLKPEDTAVYYCAARYFGLKRYDDYWGQGTQVTVSS | high polyreactivity
10 | QVQLVESGGGLVQAGGSLSLSCAATGSTFSLYAMGWYIQAPGKERELVAAISSSGGSTYYADSVKGRFTISRDNAKNTVYLQMNSLKPEDTAVYYCAAYRVGSYDYWGQGTQVTVSS | high polyreactivity
11 | QVQLVESGGGLDQAGGSLRLSSAAYGRIFRRYAMGWYRQSHGKERELVAAITSGGGSTYYADSVKGRFTISRDNAKNTVYLQMNSLKPEETAVYYCNKSSLEFVKGKYGYWGQGTQVTVSS | low polyreactivity
12 | QVQLVESGGGLVQAGGSLRLSCAASGFIFRYYAMGRYRPAPGKERELVAAISKRGGGTYYADSVKGRFTISRDNAKNTVYLQMNSLKPEDTAVYYCKKDGGYGTGSSREYDSWGQGTQVTVSS | high polyreactivity
13 | QVQLVESGGGLVQAGGSLRLSCAASGSIFGTYAMGWYRQAPGKERELVAAISFIGGDTYYADSVKGRFTISRDNAKNTVYLQMNSLKPEDTAVYYCAADRELSGYGGEYWGQGTQVTVSS | low polyreactivity
14 | QVQLVESGGGLVQAGGSLRLSCAASGRTFPRNAMGWYRQAPGKERELVARINWSGGSTTYADSVKGRFTISRDNAKNTVYLQMNSLKPEDTAVYYCNARPYTSSFTKYGPSGYWGQGTQVTVSS | high polyreactivity
15 | QVQLVESGGGLVQAGGSLRLICAASGSIFYNNDMGWYRQAPGKERELVAAINWNGGSTYYADSVKGRFTISRDNAKNTVYLQMNSLKPEDTAVYYCNAEPFWYNYGYDDDYWGQGTQVTVSS | high polyreactivity
16 | QVQLVESGGGLVQAGGSLRLSCAASGYTFYRYAMGWYRQAPGKERELVAGIDRSGTRTYYADSVKGRFTISRDNAKNTVYLQMNSLKPEDTAVYYCNAVAYYVSKYDYWGQGTQVTVSS | high polyreactivity
17 | QVQLVESGGGLVQAGGSLRLSCAASGSTFVFYTMGWYRQAPGKEREFVASISGSGGSTYYADSVKGRFTISRDNAKNTVYLQMNSLKPEDTAVYYCAAGYPYYYWTPYYYWVQGTQVTVSS | high polyreactivity
18 | QVQLVESGGGLVQAGGSLRLSCAASGSIFNPYAMGWYRQAPGKERELVAAISSTGSTYYADSVKGRFTISRDNAKNTVYLQMNSLKPEDTAVYYCAADWYWYWFSTYDYWGQGTQVTVSS | low polyreactivity
19 | QVQLVESGGGLVQAGGSLRLSCAASGSIFGGYAMGWYRQAPGKERELVAAISGSGGSTYYADSVKGRFTISRDNAKNTVYLQMNSLKPEDTAVYYCAADSNKYGYEYDYWGQGTQVTVSS | low polyreactivity
20 | QVQLVESGGGLVQAGGSLRLSCAASGSIFKRNAMVSYRQAPGKERELVASISSGGSTHYADSVKGRFTISRDNAKNTVYLQMNSLTPEDTAVYYCAATSIRWSVCSFRRDYWGQGTQVTVSS | low polyreactivity
21 | QVQLVESGGGLVQAGGSLRLTCAASGYTFAGNAMGWYRQAPGKERELVAALSRSGGRTYYADSVKGRFTISRDNAKTTVYLQMNSLKPEDTAVYYCAASYRYTEYVSTWGFGYWGQGTQVTVSS | high polyreactivity

Row | Sequence | polyreactivity (PSR sort gate)
22 | QVQLVESGGGLVQAGGSLRLSCAASGITLAGYVMGWYRQAPGKERELVADISSSGDSTYYADSVKGRFTISRDNAKNTVYLQMISLKPEDTAVYYWAAEEIIPLIYKGYPFDYWGQGTQVTVSS | low polyreactivity
23 | QVQLVESGGGLVQAGGSLRLSCAASGFTFYTNAMGWYRPAPWKERELVAAIYARTGRTYYADSVKGRFTISRDNAKNTVFLQMNSLKPEDTAVYYCAKDRQSSSTDYGYWGQGTQVTVSS | high polyreactivity
24 | QVQLVESGGGLVQAGGSLRLSCAASGRNSLYYTMGWYRQAPGKEREFVAAISSTGGSTYYADSVKGRFTISRDNAKNTVYLLMNSLKPVDTAVYYCNKVYGGGTYDYWGQGTQVTVSS | low polyreactivity
25 | QVQLVESGGGLVQAGGSLRLSCAASGRILVPNAMGWYRQAPGKERELVATITSSGSTYADSVKGRFTISRDNAKNTVYLQMNSLKPEDTAVYYCAAKYTGSFINYGLWGTYFEDDYWGQGTQVTVSS | low polyreactivity
26 | QVQLVESGGGLVQAGGSLRLSCAASGRTFRHNAMGWYRQAPGKERELVAAISKSGGRTYYADSVKGRFTISRDNAKNTVYLQMNSLKPEDTAVYYCAAPLYVSTSGEVGYWGQGTQVTVSS | high polyreactivity
27 | QVQLVESGGGLVQAGGSLRLSCAASGSTFVKYAMGWYRQAPGKERELVATITRRGGNTYYADSVKGRFTISRDNAKYTVYLQMNSLKPEDTAVYYCAKYSRTKAFEYWGQGTQVTVSS | high polyreactivity
28 | QVQLVESGGGLVQAGGSLRLSCAASGFIFVNYAMGWYRQAPGKERELVAAISRNGGRTYYADSVKGRFTISRDNAKNTVYCQMNSLTPEDTAVYYCTAELSGKRDYWGQGTQVTVSS | high polyreactivity
29 | QVQLVESGGGLVQAGGSLRLSCAASGLTFRYYAMGWYRQAPGKERELVATITRAGRTNYADSVKGRFTISRDNAKNTVYLQMNSLKPEDTAVYYCATKRVLTGYDSWGQGTQVTVSS | high polyreactivity
30 | QVQLVESGGGLVQAGGSLRLSCAATGRTSFRYTMGWYRQAPGKERELVAGISGSGGRTYYADSVKGRVTISRDNAKNTVYLQMNSLKPEDTAVYYCAAAWYTSHAKGKGGYWGQGTQVTVSS | high polyreactivity
31 | QVQLVESGGGLVQAGGSLRLSCAASGGTFFQYAMGWYRQAPGKERELVAAITWSSGSTYYADSVKGRFTISRDNAKNTVYLQMNSLKPEDTAVYYDDYYTYGDYWGQGTQVTVSS | low polyreactivity
32 | QVQLVESVGGLVQAGGSLRLSCAASGSIFWFYAMGWYRQAPGKVRELVAAITSTGGTYYADSVKGRFTISRDNAKNTVYLQMNSLKPEDTSVYYCAADRFGVQGAYLYDYWGQGTQVTVSS | low polyreactivity
33 | QVQLVESGGGLVQAGGSLRLSCAASGSILDPNAMGWYRQAPGKESELVANITNGGRTNFADSVKGRFTISRDNAKNTVYFQMNRLKPEDTAVYYCAKDSTFNSVTVLAPIIYDSWGQATQVTVSS | low polyreactivity
34 | QVQLVESGGGLVQAGGSLRLSCAASGRIFRYYVMGWNRQAPGKERELVATITSGGSTNYADSVKGRFTISRDNAKNTVYLQMNSLKPEDTAVYYCAAEKVSGQGEMDYWGQGTQVTVSS | low polyreactivity
35 | QFQLVESGGGLVQAGGSLRLSCAASGSIIGPYAMGWYRQAPVKERELVAVISSGDSKNYADSVKGRFTISRDNAKNTVYLQMNSLKQEDNEVSYCRCKYDVAHHFWVYRYDYWGHGTQVTVSS | low polyreactivity
36 | QVQLEESGGGLVQAGGSLRLSCAASGSIFTNAMGWYRQAPGKERELVAAISSSGGSTYYADSVKGRFTISRDNAKNTVYLQMNSLKPEDTAVYYCAADHYGGRDYWGQGTQVTVSS | low polyreactivity
37 | QDQHVESGGCLVQAGGSRRLSCAASGSILGAYTMGCYRQAQGKERELVAAITRRGGSTYYADSVKGRFTISRDNAKNTVYLQMNSLKPEDTAVYYWNAEYGVWYDYLVVPYDYWGQGTQVTVSS | low polyreactivity
38 | QVQLVESGGGLVQAGGSLRLTCAASGRIFTSYAMGWYRQAPGKERELVATITGSTASTYYADSVKGRFTISRDNAKYTVYLQMNSLKPEDTAVYYCAARSVGKRGYDYWGQCTQVTVSS | high polyreactivity
39 | QVQLVESGGGLVQAGGSLRLSCAASMGWYRQAPGKERELVAITRTTRTYYADSVKGRFTISRDNAKNTVYLQMNSLKPEDTAVYYCAAPNGPSPYWYNYWGQGTQVTVSS | low polyreactivity
40 | QVQLVESGGGLVQAGGSLRLSCAASGFIFWGNAMGWYRQAPGKERELVAAINYSGGRTYYADSVKGRFTISRDNAKNTVYLQMNSLKAEATAVNYCAAKYRYHVSGYDYWGQATQVTVSS | high polyreactivity
41 | QVQLVESGGGLVQAGGSLRLSCAASGFIFYRYAMGRYRQAPGKERELVAAISWYGGTTYYADSVKGRFTISRDNAKNTVYLQMNSLKPEDTAVYYCAASRLRTEYYWGQGTQVTVSS | high polyreactivity
